According to US10172951B2, “Dendrimer based nanodevices for therapeutic and imaging purposes” (priority 2009, dated 2019):

Columns and labels:
[1] = GSH triggered NAC release from PAMAM dendrimer-NAC conjugates (RP-HPLC); assay type: physicochemical; settings: for amount released: over 20 hours
Experimental: (§1) Appropriate amounts of PAMAM-S—S-NAC conjugate were dissolved in release media (Citrate or PBS buffers) to form a solution of 1 mg/ml PAMAM-S—S-NAC. One of the thiol containing molecules (GSH, Cys or BSA) was added to the conjugates to form 10 mM, 2 mM, 0.5 mM 0.1 mM or 2 μM overall thiol group concentrations and to initiate the release of NAC. All samples were run as triplicates for statistical analysis.
As control samples, conjugates were analyzed in both release media in the absence of reducing agents. The solutions were kept at 37° C. and stirred continuously. At predetermined time intervals, […] of samples were withdrawn and immediately analyzed with RP-HPLC and the concentrations of analytes were determined by using appropriate calibrations prepared under same conditions.
Dendrimer NAC conjugates were analyzed for their drug release mechanism and kinetics in the presence of GSH, Cys and BSA. Buffer solutions with pH 5 (Citrate Buffer) and pH 7.4 (Phosphate Buffered Saline) containing various concentrations of these thiol containing moieties were used in release studies.
All GSH concentrations studied were between average plasma (2 μM) and intracellular (2-10 mM) GSH levels. Various GSH concentrations were used in order to determine the GSH dependent release kinetics of the conjugate. The conjugate solutions contained 730 μM NAC in the conjugated form (1 mg/ml PAMAM-S—S-NAC) at the beginning of the release studies. GSH concentration in the release media was compared to the conjugated NAC concentrations in the release solutions for analysis of the release kinetics and mechanism.
The release of NAC from the conjugates was investigated in the presence of GSH at intracellular and extracellular concentrations. It was assumed that the release of NAC would occur by the disulfide exchange reaction. GSH and its oxidized form (GSSG) are responsible for forming the intracellular redox buffer. Intracellularly, GSH takes the role of attacking thiolate moiety and gets oxidized in the process while cleaving the existing disulfide bonds.
The conjugates were also analyzed in the absence of GSH to verify the stability of the disulfide linkage at physiological pH. […] The extent of the release of drug from both dendrimer-NAC conjugates was also analyzed at plasma and intracellular GSH concentrations. The conjugates and the GSH in required amounts were added to PBS solution, and the solution was analyzed at various time intervals by HPLC for up to 17 hours. UV absorbance peak areas were used to determine the concentrations of each of the species in the solution, based on appropriate calibration curves.

[2] = Cysteine triggered NAC release from PAMAM-S-S-NAC; assay type: physicochemical; settings: pH 7.4
Experimental: as §1

[3] = Stability of conjugate in bovine serum albumin (BSA) solution; assay type: physicochemical; settings: pH 7.4 and pH 5, over 24 hours
Text: To investigate the reducing activity of Cys in protein structures, bovine serum albumin (BSA) was chosen for release studies since it is the most abundant protein in plasma. Additionally, for intravenous administration of conjugates, it is important for the drug to stay intact with the carrier until the conjugate reaches its final destination within the body. Thus the release characteristic in the presence of albumin is crucial for intravenous applications. The release studies in the presence of BSA were carried out at pH 7.4 and pH 5 as well. The BSA concentrations used for the studies were adjusted so that the overall Cys concentrations in BSA release media were the same as the GSH and Cys release studies, discussed earlier. In addition to the five thiol concentrations studied, the stability of the conjugate at plasma BSA concentration was also analyzed.

[4] = tested on: Mouse microglial cell line (BV-2); assay: In vitro cytotoxicity, MTT assay (Example 19)
Text: In vitro cytotoxicity of the conjugate, dendrimer and NAC, at conditions similar to that used in the efficacy assays, was investigated by MTT assay. Mouse microglial cell line (BV-2) was obtained from Children's Hospital of Michigan Cell Culture Facility. These cells were used because the eventual in vivo applications seek to target microglial cells that become activated as a result of neuroinflammation.
The lipopolysaccharide (LPS) was used to activate the cells for the ROS assay. For the cytotoxicity study, the LPS treatment was continuous for 24 hours. For both groups, the LPS concentration used was 100 ng/ml. Three concentrations of NAC were studied: 0.5 mM, 2 mM and 8 mM. For the conjugate assays, the concentrations used corresponded to equivalent NAC doses of the free drug treatment groups. Similarly, the dendrimer assays were run by using dendrimer concentrations that were equivalent to conjugate treatments. Control groups included cells receiving only LPS and no other treatment and cells with no LPS or other treatment. The proportion of viable cells in the treated group was compared to that of negative control. The cell viability is expressed as mean±SD of three samples per group, and assessed by t-test.

BV-2 cells = assay: ROS assay, percent reduction in H2O2 in LPS-treated BV-2 cells (Example 19); assay type: cell-based, mouse; settings: for reduction in H2O2 levels: 0.5 mM NAC (equivalent), co-treatment with LPS
Experimental: Cells were treated with lipopolysaccharide (LPS) to induce the production of ROS. The cells were treated with LPS (100 ng/ml) and either NAC, PAMAM-S—S-NAC, or free PAMAM-NH2 dendrimers at appropriate concentrations to study the efficacy of the conjugates for reducing the ROS concentrations. In order to quantify the efficacy of conjugates, H2O2 released from BV-2 cells (ROS) was measured using the Amplex Red Hydrogen Peroxide/Peroxidase Assay Kit using previously established procedures.

Solubility in PBS/H2O = assay type: physicochemical
[5] = 10 mM GSH, PBS pH 7.4, within 1 hour
[6] = 10 mM GSH, after the initial 1 hour release (time not given)

PAMAM-NH—CO-Ethyl-S—S-NAC [PAMAM-S—S-NAC]
NAC payload in GS-S-NAC (NAC-GSH) form [1, 5]: 19% | NAC payload released in free form [1, 5]: 47% | total NAC release [1, 5]: 66% | NAC payload as GS-S-NAC [1, 6]: 14% | NAC payload in free form [1, 6]: 41% | NAC release ([1]; PBS buffer without GSH, 17 hours): did not release any of the NAC they carried | duration of sustained drug release ([1]; lysosomal pH): about 8 hours | NAC release ([1]; pH 5, 2 μM GSH, within 20 hours): no significant amount NAC was released | amount released ([1]; pH 5, 100 μM GSH): 15% | amount released ([1]; pH 5, 500 μM GSH): 58% | time to nearly completed release ([1]; pH 5, 2000 μM GSH): up to 20 hours | time to nearly completed release ([1]; pH 5, 10,000 μM GSH): ≤ 7 h | maximum extent of payload release ([1]; pH 5.0, intracellular GSH concentrations): about 90% | NAC payload released ([1]; pH 5, intracellular GSH concentrations (excess), within 20 hours): 95% | NAC release ([1]; pH 5, no GSH): did not release any NAC | NAC release ([1]; pH 7.4, 2 μM GSH): no detectable level of NAC released | NAC release ([1]; pH 7.4, 100 μM GSH): 6% | NAC release ([1]; pH 7.4, 500 μM GSH): 31% | payload released ([1]; pH 7.4, 2000 μM GSH): 60% | payload released ([1]; pH 7.4, 10,000 μM GSH): 66% | NAC release ([1]; pH 7.4, absence of GSH, within 3 days): did not release any NAC | maximum extent of payload release ([1]; pH 7.4, intracellular GSH concentrations): approximately 65% | drug released ([1]; pH 7.4, intracellular GSH levels, in less than two hours): More than 60% | NAC payload found as GS-S-NAC or NAC-NAC ([1]; plasma GSH concentration (2 μM)): 1% | release of free NAC ([1]; plasma GSH concentration (2 μM), 17 hours): did not release any detectable levels of free NAC | rate of NAC release with Cys compared to GSH [2]: slightly faster rates | NAC release in presence of BSA [3]: no NAC being released | cell survival rate ([4]; highest dose): 84% | cell survival rate ([4]; lowest concentration of the conjugate): greater than 95% | reduction in H2O2 levels (BV-2 cells; 24 hours): 72% | reduction in H2O2 levels (BV-2 cells; 72 hours): 101% | reduction in effective dose (BV-2 cells; 3 hours of treatment, lower drug doses (0.5 mM and 2 mM)): ≤ 4 fold | reduction of effective dose of NAC (BV-2 cells; continuous treatment, 0.5 mM conjugate vs 8 mM free NAC): about 16 times | Solubility in PBS/H2O (Solubility in PBS/H2O): Highly
